According to the supplement of paper PMC10724198:
± gives the standard deviation of the averaged measurements.

Key:
[1] = system: Saccharomyces cerevisiae; experiment: protein stability index of tFT-peptide fusion (C-terminal peptide) (PSI (0-1 scale)); higher = more stable (slower turnover)
Description: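 MPS profiling in S. cerevisiae of the tFT-X12 degron library: putative degron peptides plus stable controls, 12 aa, fused to the C-terminus of a sfGFP-mCherry timer. Cells are FACS-sorted into 8 mCherry/sfGFP bins and deep-sequenced. PSI runs from 0 (unstable) to 1 (stable). Backgrounds are wild type, das1Δ and doa10Δ at 30 °C, and wild type, das1Δ, cdc34-1 and cdc53-1 at 37 °C; 2-3 technical replicates each.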

[2] = system: Saccharomyces cerevisiae; experiment: as above; conditions: genetic background: wild type; temperature: 30 C
[3] = genetic background: cdc34-1, temperature: 37 C
[4] = genetic background: cdc53-1, temperature: 37 C
[5] = genetic background: das1 deletion, temperature: 30 C
[6] = genetic background: das1 deletion, temperature: 37 C
[7] = genetic background: doa10 deletion, temperature: 30 C
[8] = genetic background: wild type, temperature: 30 C
[9] = genetic background: wild type, temperature: 37 C
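Further: PSI is a weighted mean of sequencing reads over stability bins, variants kept only with over 10 reads, mCherry proximal and sfGFP distal, peptide attached via GGGS linker.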

Sequence | protein stability index [1, 3] | protein stability index [1, 4] | protein stability index [1, 5] | protein stability index [1, 6] | protein stability index [1, 7] | protein stability index [1, 8] | protein stability index [1, 9] | protein stability index [2]
VPGCLGRFLFFL | 0.594 ± 0.025 | 0.6987 ± 0.0066 | 0.573 ± 0.024 | 0.722 ± 0.029 | 0.201 ± 0.032 | 0.218 ± 0.029 | 0.413 ± 0.029 | 0.29 ± 0.024
YRHYGVARKKLA | 0.592 ± 0.075 | 0.7016 ± 0.0023 | 0.634 ± 0.034 | 0.713 ± 0.028 | 0.081 ± 0.009 | 0.134 ± 0.01 | 0.127 ± 0.016 | 0.152 ± 0.0056
GINHLSLKLRLF | 0.647 ± 0.049 | 0.723 ± 0.017 | 0.631 ± 0.014 | 0.7423 ± 0.0037 | 0.109 ± 0.037 | 0.133 ± 0.0058 | 0.288 ± 0.01 | 0.262 ± 0.017
SELLVHVVFWLA | 0.268 ± 0.013 | 0.438 ± 0.038 | 0.289 ± 0.03 | 0.463 ± 0.012 | 0.1383 ± 0.00086 | 0.176 ± 0.019 | 0.303 ± 0.011 | 0.247 ± 0.025
GLYFFVVRIFKV | 0.219 ± 0.021 | 0.345 ± 0.075 | 0.221 ± 0.039 | 0.437 ± 0.013 | 0.167 ± 0.0056 | 0.184 ± 0.022 | 0.336 ± 0.0096 | 0.27 ± 0.059
KMKGLINKRKES | 0.533 ± 0.05 | 0.657 ± 0.01 | 0.655 ± 0.037 | 0.68 ± 0.015 | 0.146 ± 0.0029 | 0.12 ± 0.05 | 0.233 ± 0.027 | 0.219 ± 0.0027
IRWCLVSVFYVV | 0.214 ± 0.028 | 0.364 ± 0.033 | 0.245 ± 0.033 | 0.444 ± 0.01 | 0.0753 ± 0.012 | 0.0978 ± 0.02 | 0.13554 ± 0.00011 | 0.192 ± 0.038
IEVACLLTAFCD | 0.22 ± 0.026 | 0.262 ± 0.0062 | 0.257 ± 0.028 | 0.225 ± 0.0027 | 0.282 ± 0.043 | 0.266 ± 0.033 | 0.209 ± 0.0052 | 0.251 ± 0.027
PVALYPVQAYLT | 0.5565 ± 0.0049 | 0.71 ± 0.025 | 0.616 ± 0.012 | 0.715 ± 0.022 | 0.119 ± 0.01 | 0.146 ± 0.017 | 0.265 ± 0.094 | 0.2307 ± 0.0013
IWRGGSAVPMIC | 0.627 ± 0.075 | 0.686 ± 0.022 | 0.572 ± 0.025 | 0.721 ± 0.013 | 0.167 ± 0.0098 | 0.195 ± 0.023 | 0.351 ± 0.02 | 0.267 ± 0.058
PSIALVRLDVIC | 0.383 ± 0.0059 | 0.471 ± 0.0073 | 0.32 ± 0.038 | 0.46 ± 0.004 | 0.297 ± 0.011 | 0.327 ± 0.031 | 0.443 ± 0.0051 | 0.392 ± 0.017
VRFGYGRIVWDI | 0.706 ± 0.035 | 0.789 ± 0.048 | 0.6514 ± 0.0055 | 0.808 ± 0.018 | 0.472 ± 0.015 | 0.496 ± 0.032 | 0.68 ± 0.016 | 0.5 ± 0.1
FFLSFRLFSILL | 0.304 ± 0.033 | 0.359 ± 0.021 | 0.342 ± 0.021 | 0.413 ± 0.014 | 0.412 ± 0.027 | 0.292 ± 0.017 | 0.368 ± 0.011 | 0.3114 ± 0.0026
LCCTLFFCYSYH | 0.569 ± 0.032 | 0.547 ± 0.064 | 0.418 ± 0.017 | 0.554 ± 0.038 | 0.374 ± 0.0053 | 0.388 ± 0.019 | 0.617 ± 0.098 | 0.424 ± 0.013
LLVRYYLFYVLV | 0.357 ± 0.018 | 0.442 ± 0.02 | 0.316 ± 0.048 | 0.477 ± 0.014 | 0.255 ± 0.0062 | 0.243 ± 0.024 | 0.391 ± 0.0082 | 0.351 ± 0.013
RIRLYWVLRRLG | 0.595 ± 0.008 | 0.693 ± 0.013 | 0.571 ± 0.023 | 0.758 ± 0.0098 | 0.0772 ± 0.023 | 0.0992 ± 0.031 | 0.129 ± 0.0085 | 0.183 ± 0.0066
AMRTIFFPAFVS | 0.543 ± 0.033 | 0.708 ± 0.0082 | 0.655 ± 0.0093 | 0.743 ± 0.018 | 0.158 ± 0.014 | 0.157 ± 0.013 | 0.222 ± 0.0069 | 0.28 ± 0.075
SWELKWVYARVV | 0.374 ± 0.0097 | 0.5602 ± 0.0046 | 0.516 ± 0.02 | 0.674 ± 0.017 | 0.093 ± 0.0033 | 0.0851 ± 0.0075 | 0.0902 ± 0.0089 | 0.131 ± 0.005
RAVLRFVMVWVL | 0.499 ± 0.042 | 0.611 ± 0.024 | 0.466 ± 0.02 | 0.5789 ± 0.003 | 0.253 ± 0.024 | 0.244 ± 0.051 | 0.434 ± 0.022 | 0.317 ± 0.0068
RISGSIVVRKRS | 0.673 ± 0.032 | 0.738 ± 0.011 | 0.642 ± 0.015 | 0.722 ± 0.019 | 0.425 ± 0.0081 | 0.45 ± 0.033 | 0.6333 ± 0.0061 | 0.554 ± 0.1

Sequence | protein stability index [1, 3] | protein stability index [1, 4] | protein stability index [1, 5] | protein stability index [1, 6] | protein stability index [1, 7] | protein stability index [1, 8] | protein stability index [1, 9] | protein stability index [2]
GIVSGEGAVGVG | 0.46 ± 0.041 | 0.511 ± 0.025 | 0.468 ± 0.0097 | 0.5212 ± 0.0039 | 0.488 ± 0.022 | 0.466 ± 0.011 | 0.4989 ± 0.0019 | 0.509 ± 0.025
MSRALSVLVVVA | 0.176 ± 0.029 | 0.211 ± 0.011 | 0.213 ± 0.036 | 0.323 ± 0.0062 | 0.172 ± 0.0091 | 0.22 ± 0.019 | 0.287 ± 0.029 | 0.312 ± 0.012
SRVCVLTGISCA | 0.568 ± 0.011 | 0.606 ± 0.016 | 0.416 ± 0.029 | 0.6023 ± 0.0038 | 0.387 ± 0.013 | 0.421 ± 0.011 | 0.572 ± 0.013 | 0.473 ± 0.018
RSAVECRVTNIR | 0.701 ± 0.031 | 0.7227 ± 0.00094 | 0.637 ± 0.018 | 0.724 ± 0.01 | 0.639 ± 0.015 | 0.658 ± 0.036 | 0.715 ± 0.024 | 0.546 ± 0.08
VVGILVLASWDL | 0.184 ± 0.011 | 0.321 ± 0.058 | 0.264 ± 0.041 | 0.426 ± 0.019 | 0.196 ± 0.0056 | 0.225 ± 0.029 | 0.373 ± 0.017 | 0.376 ± 0.045
LCVGFISFCFCL | 0.48 ± 0.032 | 0.4954 ± 0.0039 | 0.451 ± 0.0075 | 0.53 ± 0.015 | 0.434 ± 0.01 | 0.435 ± 0.014 | 0.512 ± 0.017 | 0.47934 ± 0.00045
VKVKMKIIIIIK | 0.243 ± 0.16 | 0.258 ± 0.16 | 0.28 ± 0.044 | 0.416 ± 0.032 | 0.3087 ± 0.0006 | 0.281 ± 0.087 | 0.432 ± 0.012 | 0.341 ± 0.0073
GFFLLSFLFFVR | 0.148 ± 0.0056 | 0.181 ± 0.037 | 0.212 ± 0.023 | 0.393 ± 0.034 | 0.234 ± 0.02 | 0.195 ± 0.021 | 0.311 ± 0.007 | 0.224 ± 0.032
VGIFKVCALVLR | 0.325 ± 0.019 | 0.296 ± 0.011 | 0.324 ± 0.027 | 0.4622 ± 0.003 | 0.399 ± 0.0062 | 0.335 ± 0.016 | 0.446 ± 0.011 | 0.483 ± 0.0098
FFVFPFGLLFLS | 0.504 ± 0.058 | 0.515 ± 0.013 | 0.433 ± 0.023 | 0.583 ± 0.011 | 0.2525 ± 0.0007 | 0.232 ± 0.02 | 0.385 ± 0.0085 | 0.342 ± 0.0054
QPTPQSALAKHQ | 0.655 ± 0.018 | 0.721 ± 0.04 | 0.6492 ± 0.005 | 0.731 ± 0.034 | 0.3327 ± 0.0025 | 0.337 ± 0.0054 | 0.544 ± 0.04 | 0.515 ± 0.04
TSRRPFVLVMWL | 0.504 ± 0.0061 | 0.599 ± 0.0078 | 0.405 ± 0.04 | 0.6229 ± 0.0049 | 0.363 ± 0.011 | 0.388 ± 0.035 | 0.576 ± 0.027 | 0.485 ± 0.015
LIEMVTTRYRLC | 0.59 ± 0.02 | 0.7192 ± 0.0016 | 0.622 ± 0.016 | 0.717 ± 0.034 | 0.132 ± 0.0065 | 0.128 ± 0.02 | 0.189 ± 0.018 | 0.242 ± 0.044
FSGRYFLLFRFL | 0.238 ± 0.035 | 0.28 ± 0.0032 | 0.341 ± 0.0075 | 0.389 ± 0.0091 | 0.083 ± 0.015 | 0.0605 ± 0.014 | 0.144 ± 0.038 | 0.104 ± 0.019
KKIKKYTRKLKI | 0.707 ± 0.0088 | 0.765 ± 0.014 | 0.673 ± 0.05 | 0.719 ± 0.053 | 0.323 ± 0.014 | 0.383 ± 0.02 | 0.63 ± 0.0069 | 0.455 ± 0.048
ACLLCVCVESRE | 0.531 ± 0.045 | 0.575 ± 0.053 | 0.414 ± 0.03 | 0.61303 ± 0.00036 | 0.38 ± 0.016 | 0.41 ± 0.015 | 0.5691 ± 0.0014 | 0.494 ± 0.013
CFFLSFNVFRLF | 0.465 ± 0.059 | 0.559 ± 0.011 | 0.498 ± 0.034 | 0.633 ± 0.022 | 0.107 ± 0.0097 | 0.114 ± 0.033 | 0.113 ± 0.0019 | 0.148 ± 0.05
TYSVIPSLALLP | 0.664 ± 0.03 | 0.727 ± 0.013 | 0.643 ± 0.014 | 0.7298 ± 0.0043 | 0.648 ± 0.012 | 0.652 ± 0.032 | 0.704 ± 0.022 | 0.224 ± 0.051
PSPPPYAPPIPA | 0.549 ± 0.03 | 0.611 ± 0.055 | 0.44 ± 0.023 | 0.5857 ± 0.0057 | 0.416 ± 0.019 | 0.447 ± 0.021 | 0.563 ± 0.02 | 0.488 ± 0.0057
